Experimental data: publication PMC8383165

Target: GHSR with a TAG amber codon at F71^1.60 and a single reactive cysteine at position 255^6.27, doubly labelled (UniProt Q92847)
Chain of UniProt Q92847 (Q92847 1-70): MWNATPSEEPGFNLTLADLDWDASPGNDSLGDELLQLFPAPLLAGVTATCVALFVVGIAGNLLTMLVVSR

## LEAP2 (1–12) (peptide)
  proximity ratio change from the intramolecular FRET between fluorophores in TM1 and TM6 of GHSR, in lipid nanodiscs with D2R, 10 µM peptide: 11.9

## LEAP2 (1–14) (peptide)
  proximity ratio change from the intramolecular FRET between fluorophores in TM1 and TM6 of GHSR, in lipid nanodiscs with D2R: 13.3
